Patent publication US20260232732A1 (FUNDACI INSTITUT DE RECERCA CONTRA LA LEUC MIA JOSEP …, published 2026)
Each block holds one binder with its values, some of them ahead of it. Where no end group is shown, it is not given here. The star is where a group is joined. Biotin = O=C1N[C@H]2[C@H](CS[C@H]2CCCCC(=O)*)N1

Columns and labels:
[1] = target: T1, biotin-peptide TSSMEDYVNF (human); assay: ELISA biotin-peptide; scFv 5 ug/mL; repI
T1 peptide: Biotin-TSSMEDYVNF
Procedure: (§1) The peptides were synthesized naked or with a N-terminal Biotin modification with a purity of >98%. All four scFvs were verified by ELISA that can be detected with anti-His antibodies. ELISA was performed for scFv-peptide binding validation. Briefly, naked peptides were coated (50 μg/mL) in 0.58M carbonate-bicarbonate buffer pH9.5, 100 μL/well, 4° C. O/N. Then after blocking (3% BSA-PBS, 300 μL/well 37° C. 1.5 h) and washing (PBS+Tween-20 0.05% v/v (0.05% PBST), wells were incubated with each purified scFv antibody at concentration of 1 μg/mL in PBS at 37° C. 1 h. After washing (0.05% PBST), wells were incubated with secondary antibodies (goat anti-His IgG-HRP) in PBS, 37° C., 30 min. After washing, and incubation with TMB substrate, reactions were stopped with 2M HCl and reading was quantified at OD450.
(§2) ELISA with biotin-conjugated peptides (5 μg/mL) was performed very similar to described above with minor modifications.
(§3) A full curve ELISA was performed for each positive scFv/biotin-peptide pair in order to confirm previous results. Tables 15-17 show ELISA results of the dose-dependent full curve for each positive peptide with scFv “CCR9_HUM”, “Comp-2” and “Comp-3”, respectively.

[2] = target: T2, biotin-peptide SSMEDYVNFN (human); assay: ELISA biotin-peptide; scFv 5 ug/mL; repI
T2 peptide: Biotin-SSMEDYVNFN
Procedure: as §1, §2, §3

[3] = target: T3, biotin-peptide SMEDYVNFNF (human); assay: ELISA biotin-peptide; scFv 5 ug/mL; repI
T3 peptide: Biotin-SMEDYVNFNF
Procedure: as §1, §2, §3

[4] = target: T4, biotin-peptide MEDYVNFNFT (human); assay: ELISA biotin-peptide; scFv 5 ug/mL; repI
T4 peptide: Biotin-MEDYVNFNFT
Procedure: as §1, §2, §3

[5] = target: T1, biotin-peptide TSSMEDYVNF; assay: ELISA biotin-peptide; scFv 10 ug/mL; repI
Procedure: as §1, §2, §3

[6] = target: T2, biotin-peptide SSMEDYVNFN; assay: ELISA biotin-peptide; scFv 10 ug/mL; repI
Procedure: as §1, §2, §3

[7] = target: T3, biotin-peptide SMEDYVNFNF; assay: ELISA biotin-peptide; scFv 10 ug/mL; repI
Procedure: as §1, §2, §3

[8] = target: T4, biotin-peptide MEDYVNFNFT; assay: ELISA biotin-peptide; scFv 10 ug/mL; repI
Procedure: as §1, §2, §3

[9] = target: T1, biotin-peptide TSSMEDYVNF; assay: ELISA biotin-peptide; scFv 5 ug/mL; repII
Procedure: as §1, §2, §3

[10] = target: T2, biotin-peptide SSMEDYVNFN; assay: ELISA biotin-peptide; scFv 5 ug/mL; repII
Procedure: as §1, §2, §3

[11] = target: T3, biotin-peptide SMEDYVNFNF; assay: ELISA biotin-peptide; scFv 5 ug/mL; repII
Procedure: as §1, §2, §3

[12] = target: T4, biotin-peptide MEDYVNFNFT; assay: ELISA biotin-peptide; scFv 5 ug/mL; repII
Procedure: as §1, §2, §3

[13] = target: T5, Peptide 3-BSA (SSMEDYVNFN-C conjugated to BSA) (human); assay: ELISA; Ab 0.125 ug/mL; repI
T5 peptide: SSMEDYVNFNC(BSA)
Procedure: (§4) In brief, plates with each non-conjugated peptide (50 μg/mL) or BSA-conjugated peptide (5 μg/mL) were coated in 0.58M carbonate-bicarbonate buffer pH9.5, 100 μL/well, at 4° C. […] After washing, wells were incubated with the 3, 3′,5,5′-Tetramethylbenzidine (TMB) HRP substrate and reactions were stopped with 2M HCl and OD450 was recorded.

[14] = target: T6, Peptide 4-BSA (SMEDYVNFNF-C conjugated to BSA) (human); assay: ELISA; Ab 0.125 ug/mL; repI
T6 peptide: SMEDYVNFNFC(BSA)
Procedure: as §4

[15] = target: T7, Peptide 1, non-conjugated (MADDYGSEST-C) (human); assay: ELISA; Ab 0.125 ug/mL; repI
T7 construct: With the extra C-terminal Cys
T7 peptide: MADDYGSESTC
Procedure: as §4

[16] = target: T8, Peptide 2, non-conjugated (GSESTSSMED-C) (human); assay: ELISA; Ab 0.125 ug/mL; repI
T8 construct: With the extra C-terminal Cys
T8 peptide: GSESTSSMEDC
Procedure: as §4

[17] = target: T9, Peptide 3, non-conjugated (SSMEDYVNFN-C) (human); assay: ELISA; Ab 0.125 ug/mL; repI
T9 construct: With the extra C-terminal Cys
T9 peptide: SSMEDYVNFNC
Procedure: as §4

[18] = target: T10, Peptide 4, non-conjugated (SMEDYVNFNF-C) (human); assay: ELISA; Ab 0.125 ug/mL; repI
T10 construct: With the extra C-terminal Cys
T10 peptide: SMEDYVNFNFC
Procedure: as §4

[19] = target: T11, BSA (negative control coating) (bovine, UniProt P02769 25-607); assay: ELISA; Ab 0.125 ug/mL; repI
T11 construct: also called Negative control BSA
Procedure: as §4

[20] = target: T12, antigen peptide-BSA (immunisation peptide #1 MADDYGSESTSSMEDYVNFNF-C conjugated to BSA) (human, extra C-terminal Cys conjugated to BSA); assay: ELISA; Ab 0.125 ug/mL; repI
T12 construct: also called Positive control antigen peptide-BSA; MADDY peptide
T12 peptide: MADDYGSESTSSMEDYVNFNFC
Procedure: as §4

[21] = target: T13, Peptide 1-BSA (MADDYGSEST-C conjugated to BSA) (human); assay: ELISA; Ab 0.125 ug/mL; repI
T13 peptide: MADDYGSESTC(BSA)
Procedure: as §4

[22] = target: T14, Peptide 2-BSA (GSESTSSMED-C conjugated to BSA) (human); assay: ELISA; Ab 0.125 ug/mL; repI
T14 peptide: GSESTSSMEDC(BSA)
Procedure: as §4

T11 sequence (P02769 25-607 limits assumed): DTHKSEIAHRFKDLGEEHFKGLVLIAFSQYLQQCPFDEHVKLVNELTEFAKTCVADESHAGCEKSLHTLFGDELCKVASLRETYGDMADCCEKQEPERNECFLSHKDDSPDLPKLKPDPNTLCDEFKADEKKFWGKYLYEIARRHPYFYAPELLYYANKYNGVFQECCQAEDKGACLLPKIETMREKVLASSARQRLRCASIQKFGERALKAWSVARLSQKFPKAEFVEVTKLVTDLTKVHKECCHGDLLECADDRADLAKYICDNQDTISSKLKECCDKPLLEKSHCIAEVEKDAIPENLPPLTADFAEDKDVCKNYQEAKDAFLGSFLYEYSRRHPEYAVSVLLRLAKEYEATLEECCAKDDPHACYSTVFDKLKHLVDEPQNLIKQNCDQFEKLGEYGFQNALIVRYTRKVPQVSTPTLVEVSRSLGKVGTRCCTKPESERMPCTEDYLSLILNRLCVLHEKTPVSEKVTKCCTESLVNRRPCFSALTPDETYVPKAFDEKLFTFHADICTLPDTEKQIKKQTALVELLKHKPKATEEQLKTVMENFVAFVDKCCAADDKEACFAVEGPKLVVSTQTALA

- OD450 [1]: 1.47 OD
- OD450 [2]: 1.86 OD
- OD450 [3]: 1.78 OD
- OD450 [4]: 1.71 OD
- OD450 [5]: 1.46 OD
- OD450 [6]: 1.9 OD
- OD450 [7]: 1.79 OD
- OD450 [8]: 1.72 OD
- OD450 [9]: 1.38 OD
- OD450 [10]: 1.82 OD
- OD450 [11]: 1.79 OD
- OD450 [12]: 1.72 OD
B1: CCR9_HUM2 scFv (humanized anti-CCR9 scFv, SEQ ID NO: 17 with C-terminal 6xHis tag) (scFv)
scFv: QVQLVQSGAEVKKPGASVKVSCTASGYSFTDYIIYWVKQAHGQSLEWMGYIDPNNYNTRYSQKFQGKVTITVDKSSTSAYMELNSLTSDDTAVYYCARDVYWGQGTTVTVSSGGGGSGGGGSGGGGSGGGGSDVVMTQTPLSLSVTPGQPASISCRSSQSLVHSNGKTYLQWYLQKPGQSPKLLIYKVSNRFSGVPDRFSGSGSGTDFTLKISRVEAEDVGVYFCAQSTHVWTFGGGTKVEIKRAHHHHHH

- OD450 [13]: 1.97 OD
- OD450 [14]: 2.23 OD
- OD450 [15]: 0.01 OD
- OD450 [16]: 0.01 OD
- OD450 [17]: 1.77 OD
- OD450 [18]: 1.69 OD
- OD450 [19]: 0.01 OD
- OD450 [20]: 2.15 OD
- OD450 [21]: 0.02 OD
- OD450 [22]: 0.01 OD
B2: anti-CCR9 antibody clone 115 (murine, from hybridoma #115) (antibody, V domains shown)
VH: QVQLKQSGPELVKPGTSVRVSCTASGYSFTDYIIYWVKQSHGRSLEWIGYIDPNNYNTRYSQKFKGKATLTVDKSSTSAFMHLNSLTSDDSAVYYCARDVYWGQGTTLTVSS
VL: DVVMTQTPLSLTVSLGDQASISCRSSQSLVHSNGKTYLQWYLQKPGQSPKLLIYKVSNRFSGVPDRFSGSGSGTDFTLKISRVEAEDLGVYFCAQSTHVWTFGGGTKLEIKR
notes: Mouse IgG1
